Assay results taken from the RNAGym collection of RNA variant scans (doi:10.1073/pnas.2313332121).

B1: TPR t1 (parent)
chain: GACCAAUCUGCCCUCAGAGCUCGAGAACAUCUUCGGAUGCAGAGGAGGCAGGCUUCGGUGGCGCGAUAGCGCCAACGUCCUCAACCUCCAAUGCAUCCCACCACAUGAUGAUGCCUGAAGAGCCUUGGUUUUUUG

Variants of: B1
Experiment: polymerase ribozyme fitness, log enrichment relative to wild type (log ratio); higher = more active; in vitro selection for triplet polymerase activity
Outline: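 Genotype fitness is the logarithm of its enrichment divided by wild-type enrichment, using inverse-variance-weighted averages of replicates. That logarithm is base 2. Enrichment was measured by Illumina sequencing of input and output libraries from one triplicate in vitro selection round, with frozen incubation at −7 °C, on PCR-built, transcribed mutant libraries of each subunit of a heterodimeric triplet polymerase ribozyme, retaining genotypes with ≥10 input reads and ≥1 read per output.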

In order of rising “polymerase ribozyme fitness (log ratio)” value:
1. GACCAAUCUGCCCUCAGAGCUCCAGAACAUCUUCGGAUGCAGAGGAGGCAGGCUUCGGUGGCGCGAUAACGCCAACGUCCUCAACCUCCAAUGCAUCCCACCACAUGAUGAUGCCUGAAGAGCCUUGGUUUUUUG [G23C G69A]  -7.97
2. GACCAAUCUGCCCUCAGAGCUCCAGAACAUCUUCGGAUGCAGAGGAGGCAGGCUUCGGUGGCGCGAUAGGGCCAACGUCCUCAACCUCCAAUGCAUCCCACCACAUGAUGAUGCCUGAAGAGCCUUGGUUUUUUG [G23C C70G]  -7.47
3. GACCAAUCUGCCCUCAGAGCUCAAGAACAUUUUCGGAUGCAGAGGAGGCAGGCUUCGGUGGCGCGAUAGCGCCAACGUCCUCAACCUCCAAUGCAUCCCACCACAUGAUGAUGCCUGAAGAUCGUUGGUUUUUUG [G23A C31U G122U C124G]  -7.15
4. GACCAAUCUGCCCUCAGAGCUCCAGGACAUCUUCGGAUGCAGAGGAGGCAGGCUUCGGUGGCGCGAUAGCGCCAACGUCCUCAACCUCCAAUGCAUCUCACCACGUGAUGAUGGCUGAAGAGCCUUGGUUUUUUG [G23C A26G C98U A105G C114G]  -7.07
5. GACCAAUCUGCCCUCAGAGCUCCAGAACAUCUUCGGAUGCAGAGGAGGGACGCUUCGGUGUCGCGAUAGCGCCAACGUCCUCAACCUCCAAUGCAUCCCACCACAUGAUGAUGCCUUAAGAGCCUUGCUUUUUUG [G23C C49G G51C G61U G117U G128C]  -6.88
6. GACCAAUCUGCCCUCAGAGCUCUAGAACAUCUUCGGAUGCAGAGGAGGCAGGCUUCGGUGGCGCGAUAGCGCCAACGUCCUCAACCUCCUAUGCAUCCCACCACAUGAUGAUGCCUGAAGAGCCUUGGUUUUUUG [G23U A90U]  -6.86
7. GACCAAUCUGCCCUCAGAGCUCUAGAACAUGUUCGGAUGCAGAGGAGGCAGGCUUCGGUGGCGCGAUAGCGCCAACGUCCUCAACCUCCAAUGCAUCCCACGACAUGAUGAUGCCUGAAGAGCAUUGGUUUUUUG [G23U C31G C102G C124A]  -6.83
8. GACCAAUCUGCCCUCAGAGCUUGAGAACAUCUUCGGAUGCAGAGGAGGCAGGCUUCGGUGGCGCGAUAGCGCCAACGUCCUCAACCUCCAAUGCAUCCCACCACAGGAUGAUGCUUGAAGAGCCUUGGUUUUUUG [C22U U106G C115U]  -6.69
9. GACCAAUCUGCCCUCAGAGCUCAAGAACAUCUUCGGAUGCAGAGGAGGCAGGCUUCGGUGGCGGGAUAGCGCCAACGUCCUCAACCUCCAAUGCAUCCCACCACAUGAUGAUGCUUGAAGAGGCUUGGUUUUUUG [G23A C64G C115U C123G]  -6.62
10. GACCAAUCUGCCCUCAGAGCUUGAGAACAUCUUCGGAUGCAGAGGAGGCAGGCUUCGGUGGCGCGAUAGUGCCAACGUCCUCAACCUGCAAUGCAUCCCACCACAUGAUGAUGCCUGAAGAGCCUUGGUUUUUUG [C22U C70U C88G]  -6.53
11. GACCAAUCUGCCCUCAGAGCUCUAGCACAUCUUCGGAUGCAGUGGAGGCAGGCUUCGGUGGCUCGAUAGCGCCAACGUCCUCAACCUCCAAUACAUCCCACCACAUGAUGAUGCCUCAAGAGCCUUGGUUUUUUG [G23U A26C A43U G63U G93A G117C]  -6.53
12. GACCAAUCUGCCCUCAGAGCUCCAGAACAUCUUCGGAUGCAGAGGAGGCAGGCUUCGGUGGCGCGAUAACGCCAACGUCCUCAACCUCCAAUGCAUCCCACCACAUGAUGAUGCCUGAAAUGUCUUGGCUUUUUG [G23C G69A G120A A121U C123U U129C]  -6.52
13. GACCAAUCUGCCCUCAGAGCUCUAGAACAUCUUCGGAUGCAGAGAAGGCAGGCUUUGGUGGCGCGAUAGCGCCAACGUCCUCAACCUCCAAUGCAUCACACCACAUGAUGAGGCCUGAAGAGCCUUGGUUUUUUG [G23U G45A C56U C98A U112G]  -6.47
14. GACCAAUCUGCCCUCAGAGCUCAAGAACAUCUUCGGAUGCAGAGGAGGCAGGCUUCGGUGGCGCGAUAGCGCAAACGUCCUCGACCUCCAAUGCAUCCCACCACAUGAUGAUGCCUGAAUAGCCUUGGUUUUUUG [G23A C73A A83G G120U]  -6.38
15. GACCAAUCUGCCCUCAGAGCUCAAGAACAUCUUCGGAUGCAGAGGAGGCAGGCUUCGGUGGCGCGAUAGCGCCAACAUCCUCAACCUCCAAUGCAUCCCACCACAUGAUGAUGCCUGAAGAGCCUUGGUUUUUUG [G23A G77A]  -6.34
16. GACCAAUCUGCCCUCAGAGCUUGAGAACAUCUUCGGAUACAGAGGAGGCAGGCUUCGGUGGCGUGAUAGCGCCAACGUCCUCAACCUCCAAUGCAUCCUACCACAUGAUGAUGCCUGAAGAGCCUUGGUCUUUUG [C22U G39A C64U C99U U130C]  -6.29
17. GACCAAUCUGCCCUCAGAGCUUGAGAACAUCUUCGGAUGCAGAGGAGGCAGGCUUCGGUGGCGCGAUAGCGCCAACGUCCUCAACCUCCAAUGCAUCCCAACACAUGAUGAUGCCUGAAGAACCUUGGUUUUUUG [C22U C101A G122A]  -6.14
18. GACCAAUCUGCCCUCAGAGCUCAAGAACAUCUUCGGAUGCAGAGGAGGCAAGCUUCGGUGGCGCGAUAGCGCCAACGUCCUCAACCUCCAAUGCAUCCCACCACAUGAUGGUGCCUGAAGAGCCUUGGUUUUUUG [G23A G51A A111G]  -6
19. GACCAAUCUGCCCUCAGAGCUUGAGAACAUCUUCGGAUGCAGAGAAGGCAGGCUUCGGUGGCGCGAUAGCGCCAACGUCCUCCACCUCCAAUGCAUCCCACCACAUGAUGAUGCCUGAAGAGCCUUGGUUUUUUG [C22U G45A A83C]  -5.99
20. GACCAAUCUGCCCUCAGAGCUUGAGAACAUCUUCGGAUGCAGAGGAGGCAGACUUCGGUGGCGCGAUAGCGCCAACGUCCUCACCCUCCAAUGCAUCCCACCAUAUGAUGAUGCCUGAAGAGCCUUGGUUUUUUG [C22U G52A A84C C104U]  -5.74
21. GACCAAUCUGCCCUCAGAGCUUGAGAACAUCUUCGGAUGCAGAGGAGGCAGGCUUCGGUGGCGCUAUAGCGGCAACGUCCUCAACCUCCAAUGCAUCCCACCACAUGAUGAUGCCUGAAGAGCUUUGGUUUUUUG [C22U G65U C72G C124U]  -5.7
22. GACCAAUCUGCCCUCAGAGCUCAAGAACAUCUUCGGAUGCAGAGGAGGCAGGUUUCGGUGGCGCGAUAGCGCCAACGUCCUCAACCUCCAAUGCAUCCCACCACAUGAUGAUGCCUGAAGAGCCUUGGUUUUUUG [G23A C53U]  -5.33
23. GACCAAUCUGCCCUCAGAGCUCAAGAACAUCUUCGGAUGCAGAGGAGGCAGGCUUCGGUGGCGCGAUAGCGUCAACGUCCUCAACCUCCAAUGCAUCCCACCACAUGAUGAUGCCUGAAGAGCCUUGGUUUUUUG [G23A C72U]  -5.21
24. GACCAAUCUGCCCUCAGAGCUCCAGGACAUCUUCGGAUGCAGAGGAGGCAGGCUUCGGUGGCGCGAUAGCGCCAACGUCCUCAACCUCCAAUGCAUCCCACCACAUGAUGAUGCCUGAAGAGCUUUGGUUUUUUG [G23C A26G C124U]  -5.18
25. GACCAAUCUGCCCUCAGAGCUCUAGGACAUCUUCGGUUGCAGAGGAGGCAGGCUUCGGUGGCGCGAUAUCGCCAACGUCCUCAACCUCCAAUGCAUCCCACCACAUGAUGAUGCCUGAAGAGCCUUGGUUUUUUG [G23U A26G A37U G69U]  -5.18
26. GACCAAUCUGCCCUCAGAGCUCAAGGACAUCUUCGGAUGCAGAGGAGGCAGGCUUCGGUGGCGCGAUAGCGCCAACGUCCUCAACCUCCAAUGCAUCCCACCAAAUGAUGAUGCCUGAAGAGCCUUGGUUUUUUG [G23A A26G C104A]  -5.12
27. GACCAAUCUGCCCUCAGAGCUCAAGAACAUCUUCGGAUGCAGAGGAGGCAGGCUUCGGUGGCGCGAUAGCGGCAACGUCCUCAACCUCCAAUGCAUCCCACCACAUGAUGAUGCCUGAAGAGCCUUGGUUUUUUG [G23A C72G]  -4.87
28. GACCAAUCUGCCCUCAGAGCUUGAGAACAUCUUCGGAUGCAGAGGAGGCAAGCUUCGGUGGCGCGAUAGCGCCAACGUCCUCAACCUCCAAUGCAUCCCACCACAUGAUGAUGCCUGAAGAGCCUUGGUUUUUUG [C22U G51A]  -4.81
29. GACCAAUCUGCCCUCAGAGCUUGAGAACAUCUUCGGAUGCAGAGGAGGCAGGCUUCGGUGGCGCGAUAGCGACAACGUCCUCAACCUCCAAUGCAUCCCCCCACAUGAUGAUGCCUGAAGAGCCUUGGUUUUUUG [C22U C72A A100C]  -4.76
30. GACCAAUCUGCCCUCAGAGCUUGAGAACAUCUUCGGAUACAGAGGAGGCAGGCUUCGGUGGCGCGAUAGCGCCAACGUCCUCAACCUCCAAUGCAUCCCACCACAUGAUGAUGCCUGAAGAGCCUUGGUUUUUUG [C22U G39A]  -4.66
31. GACCAAUCUGCCCUCAGAGCUCAAGAACAUCUUCGGAUGCAGAGGAGGCAGGCUUCGGUGGCGCGAUAUCGCCAACGUCCUCAACCUCCAAUUCAUCCCACCACAUGAUGAUGCCUGAAGAGCCUUGGUUUUUUG [G23A G69U G93U]  -4.63
32. GACCAAUCUGCCCUCAGAGCUCUAGAACAUCUUCGGAUGCAGAGGAGGCAGGCUUCGGUGGCGUGAUAGCGCCAACGUCCUCAACCUCCAAUGCAUCCCACCACAUGAUGAUGCCUGAAGAGCCUUGGUUUUUUG [G23U C64U]  -4.56
33. GACCAAUCUGCCCUCAGAGCUCAAGGACAUCUUCGGAUGCAGAGGAGGCAGGCUUCGGUGGCGCGAUAGCGCCAACGUCCUCAACCUCCAAUGCAUCCCACCACAUGAUGAUGCCUGAAGAGCCUUGGUUUUUUG [G23A A26G]  -4.52
34. GACCAAUCUGCCCUCAGAGCUCUAGAACAUCUUCGGAUGCAGAGGAGGCAGGCUUCGGUGGCGCGAUAGCGCCAACGUCCUCAACCUCCAAUGCAUCCCACCACAUGAUGAUGCCUGAAGAGCAUUGGUUUUUUG [G23U C124A]  -4.31
35. GACCAAUCUGCCCUCAGAGCUUGAGAACAUCUUCGGAUGCAGAGGAGGCAGGCUUCGGUGGCGCGAUAGUGCCAACGUCCUCAACCUCCAAUGCAUCCCACCACAUGAUGAUGCCUGAAGAGCCUUGGUUUUUUG [C22U C70U]  -4.14
36. GACCAAUCUGCCCUCAGAGCUUGAGAACAUCUUCGGAUGCAGAGGAGGCAGGCUUCGGUGGCGCGAUAGCGCCAACGUCCUCAACCUCCAAUGCAUCCCACCACAUGAUGAUGCUUGAAGAGCCUUGGUUUUUUG [C22U C115U]  -4.01
37. GACCAAUCUGCCCUCAGAGCUUGAGAACAUCUUCGGAUGCAGAGGAGGCAGGCUUGGGUGGCGCGAUAGCGCCAACGACCUCAACCUCCAAUGCAUCCCACCACAUGAUGAUGCCUGAAGAGCCUUGGUUUUUUG [C22U C56G U78A]  -3.95
38. GACCAAUCUGCCCUCAGAGCUUGAGAACAUCUUCGGAUGCAGAGGAGGCAGGCUUCGGUGGCGCGAUAGCGCCAACGUCCUCAACCUCCAAUGCAUCCCACCACAUGAUGAUGCCUGAAGAGCCUUGGUUAUUUG [C22U U131A]  -3.95
39. GACCAAUCUGCCCUCAGAGCUUGAGAACAUCUUCGGAUGCAGAGGAGGCAGGCUUCGGUAGCGCGAUAGCGCCAACGUCCUCAACCUCCAAUGCAUCCCACCACAUGAUGAUGCCUGAAGAGCCUUGGUUUUUUG [C22U G60A]  -3.85
40. GACCAAUCUGCCCUCAGAGCUUGAGAACAUCUUCGGAUGCAGAGGAGGCAGGCUUCGGUGGCGCGAUAGCGCCAACGUCCUCAACCUCCAAUGCAUCCCACCACAUGAUGAUGCCUGAAUAGCCUUGGUUUUUUG [C22U G120U]  -3.75
41. GACCAAUCUGCCCUCAGAGCUCAAGAACAUCUUCGGAUGCAGAGGAGGCAGGCUUCGGUGGCGCGAUAGCGCCAACGUCCUCAACCUCCAAUGCAUCCCACCACAAGAUGAUGCCUGAAGAGCCUUGGUUUUUUG [G23A U106A]  -3.44
42. GACCAAUCUGCCCUCAGAGCUUGAGAACAUCUUCGGAUGCAGAGGAGGCAGGCUUCGGUGGCGCGAUAUCGCCAACGUCCUCAACCUCCAAUGCAUCCCACCACAUGAUGAUGCCUGAAGAGCCUUGGUUUUUUG [C22U G69U]  -2.26
